The Human Domainome abundance scans (Beltran et al. 2025)

B1: Ankyrin-1, residues 1405 to 1484; numbered along this chain, P16157 (parent)
chain: MKMAVISEHLGLSWAELARELQFSVEDINRIRVENPNSLLEQSVALLNLWVIREGQNANMENLYTALQSIDRGEIVNMLE

Variants of: B1
Experiment: abundance fitness (aPCA) (normalised: wild type 0, dead -1); higher = more abundant; growth selection in yeast, the domain comes from the species named
Conditions: Homo sapiens

Abundance fitness, by site and new letter:
E41: I -0.579, K 0.117, M -0.275, N 0.162, P -0.574, Q -0.1, R 0.054, S -0.005, T -0.184, V -0.467, W -0.563, Y -0.28
Q42: A -0.257, C -0.061, D -0.698, E -0.926, F -0.899, G -0.923, I -0.915, L -0.863, M -0.172, N -0.882, P -1.04, R -0.152, S -0.383, T -0.723, V -0.813, W -0.794, Y -0.864
S43: C -0.552, D -0.503, G 0, H -0.56, I -0.919, K -0.598, L -0.944, M -1.05, N -0.099, P -0.721, R -0.89, T -0.807, V -0.757, W -0.805, Y -0.857
V44: A 0.148, C 0.05, D 0.112, E -0.058, F 0.182, G 0.046, H 0.275, I -0.217, K 0.327, L 0.014, M 0.142, N 0.296, P -0.911, Q 0.18, R 0.181, S 0.154, T 0.161, W -0.021, Y 0.03
A45: C -0.259, D -0.306, E -0.023, F -0.65, G -0.248, I -0.45, L -0.627, M -0.173, N -0.226, P -0.77, Q -0.139, R -0.147, S -0.03, T -0.085, V -0.513, W -0.921, Y -0.565
L46: C -0.138, D -1.1, E -0.987, F -0.204, G -0.953, I -0.446, K -0.741, M -0.201, N -0.878, P -0.891, Q -1.13, S -0.832, T -0.143, W -0.638, Y -0.614
L47: A -0.905, C -0.061, D -0.743, E -0.874, G -0.521, H -0.503, I -0.256, M 0.061, N -0.914, P -0.654, T -0.628, V -0.308, W -0.673, Y -0.997
N48: A -0.415, C -0.495, D 0.154, E -0.458, F -0.896, G -0.236, H -0.042, I -1.04, K 0.098, L -0.835, M -0.575, P -1.07, Q -0.205, R -0.006, S -0.277, T -0.544, V -0.474, W -0.834
L49: A -0.138, C -0.097, D -0.196, E -0.055, F -0.19, G -0.11, H -0.239, I -0.058, K 0.047, M 0.061, N -0.256, P -0.81, Q 0.014, R -0.088, T -0.216, V -0.314, W -0.359, Y -0.037
W50: A -0.902, C -0.71, D -0.653, E -0.834, F -0.713, G -1.07, K -0.655, L -0.368, P -1, Q -0.708, R -0.863, S -0.734, T -0.823, V -0.923, Y 0.015
V51: A -0.072, F 0.071, G -0.001, H 0.026, I 0.017, K 0.156, L 0.053
